Results on two molecules are retold here after article PMC10397247.

For assay [1], the target named is T1, 4H349-bA.
T1 chain: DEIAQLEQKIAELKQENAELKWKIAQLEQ
Description: two-hybrid library CCNG1.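 Further: natural log of median RNA to DNA barcode read ratio; higher means stronger binding.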

Assay [2] addresses T2, 4H949-bA.
T2 chain: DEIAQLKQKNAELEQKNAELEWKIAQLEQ
Description: two-hybrid library CCNG1.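 Further: natural log of median RNA to DNA barcode read ratio; higher means stronger binding.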

The target of assay [3] is T3, 4H2585-bA.
T3 chain: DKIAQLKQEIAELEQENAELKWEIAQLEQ
Put plainly: two-hybrid library CCNG1.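 Further: natural log of median RNA to DNA barcode read ratio; higher means stronger binding.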

The target in assay [4] is T4, 4H2859-bA.
T4 chain: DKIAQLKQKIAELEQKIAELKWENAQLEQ
Put plainly: two-hybrid library CCNG1.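 Further: natural log of median RNA to DNA barcode read ratio; higher means stronger binding.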

The target in assay [5] is T5, 4H264-bA.
T5 chain: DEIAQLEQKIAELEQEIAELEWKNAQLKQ
Description: two-hybrid library CCNG1.

Assay [6] addresses T6, 4H3297-bA.
T6 chain: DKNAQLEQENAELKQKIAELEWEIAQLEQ
Description: two-hybrid library CCNG1.

For assay [7], the target named is T7, 4H932-bA.
T7 chain: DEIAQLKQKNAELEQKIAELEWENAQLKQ
Description: two-hybrid library CCNG1.

Assay [8] has as its target T8, 4H730-bA.
T8 chain: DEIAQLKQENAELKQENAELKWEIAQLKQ
Description: two-hybrid library CCNG1.

Assay [9] has as its target T9, 4H3381-bA.
T9 chain: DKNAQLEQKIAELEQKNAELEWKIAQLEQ
Put plainly: two-hybrid library CCNG1.

Assay [10] concerns the target T10, 4H2444-bA.
T10 chain: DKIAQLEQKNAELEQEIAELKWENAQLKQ
Put plainly: two-hybrid library CCNG1.

In assay [11] the target is T11, 4H2518-bA.
T11 chain: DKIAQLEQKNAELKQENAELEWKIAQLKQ
Description: two-hybrid library CCNG1.

Assay [12] deals with T12, P6bH1.
T12 chain: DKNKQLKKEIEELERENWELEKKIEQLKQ
Description: two-hybrid library CCNG1.

The target of assay [13] is T13, 4H2760-bA.
T13 chain: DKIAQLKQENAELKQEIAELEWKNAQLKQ
Put plainly: two-hybrid library CCNG1.

For assay [14], the target named is T14, 4H3364-bA.
T14 chain: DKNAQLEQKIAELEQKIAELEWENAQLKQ
Description: two-hybrid library CCNG1.

The target in assay [15] is T15, 4H235-bA.
T15 chain: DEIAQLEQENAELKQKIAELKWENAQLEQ
Put plainly: two-hybrid library CCNG1.

The target in assay [16] is T16, 4H796-bA.
T16 chain: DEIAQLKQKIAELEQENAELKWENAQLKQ
Put plainly: two-hybrid library CCNG1.

Assay [17] concerns the target T17, 4H3041-bA.
T17 chain: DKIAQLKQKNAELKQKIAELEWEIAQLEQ
Put plainly: two-hybrid library CCNG1.

For assay [18], the target named is T18, 4H56-bA.
T18 chain: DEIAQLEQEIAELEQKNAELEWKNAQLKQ
Put plainly: two-hybrid library CCNG1.

For assay [19], the target named is T19, 4H2931-bA.
T19 chain: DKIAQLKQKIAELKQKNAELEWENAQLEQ
Description: two-hybrid library CCNG1.

Assay [20] addresses T20, 4H2253-bA.
T20 chain: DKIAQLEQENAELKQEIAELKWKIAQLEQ
Description: two-hybrid library CCNG1.

Assay [21] concerns the target T21, 4H2512-AA.
T21 chain: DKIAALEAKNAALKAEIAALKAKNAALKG
Put plainly: two-hybrid library CCmax. As to conditions: mean of both orientations.

In assay [22] the target is T22, 4H278-AA.
T22 chain: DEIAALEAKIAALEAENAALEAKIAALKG
Description: two-hybrid library CCmax. As to conditions: mean of both orientations.

Assay [23] has as its target T23, 4H3409-AA.
T23 chain: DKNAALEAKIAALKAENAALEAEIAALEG
Description: two-hybrid library CCmax. To be noted: mean of both orientations.

Assay [24] deals with T24, 4H2758-AA.
T24 chain: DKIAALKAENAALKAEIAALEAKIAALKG
Description: two-hybrid library CCmax. To be noted: mean of both orientations.

Assay [25] addresses T25, 4H775-AA.
T25 chain: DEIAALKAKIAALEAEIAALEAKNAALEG
Description: two-hybrid library CCmax.

The target of assay [26] is T26, 4H2187-AA.
T26 chain: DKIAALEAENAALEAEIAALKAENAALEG
Put plainly: two-hybrid library CCmax.

Assay [27] has as its target T27, 4H3940-AA.
T27 chain: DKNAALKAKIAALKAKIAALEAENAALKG
Put plainly: two-hybrid library CCmax. To be noted: mean of both orientations.

The target of assay [28] is T28, 4H816-AA.
T28 chain: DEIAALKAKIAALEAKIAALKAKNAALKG
Description: two-hybrid library CCmax. To be noted: mean of both orientations.

The target of assay [29] is T29, 4H3134-AA.
T29 chain: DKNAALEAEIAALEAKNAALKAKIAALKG
Description: two-hybrid library CCmax. As to conditions: mean of both orientations.

Assay [30] addresses T30, 4H87-AA.
T30 chain: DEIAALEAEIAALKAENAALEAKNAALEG
Put plainly: two-hybrid library CCmax. As to conditions: mean of both orientations.

Assay [31] deals with T31, 4H233-AA.
T31 chain: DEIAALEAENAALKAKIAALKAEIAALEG
Put plainly: two-hybrid library CCmax. To be noted: mean of both orientations.

The target in assay [32] is T32, 4H2873-AA.
T32 chain: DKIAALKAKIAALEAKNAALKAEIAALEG
Put plainly: two-hybrid library CCmax. To be noted: mean of both orientations.

Assay [33] addresses T33, 4H510-AA.
T33 chain: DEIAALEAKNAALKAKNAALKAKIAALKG
Description: two-hybrid library CCmax. As to conditions: mean of both orientations.

The target in assay [34] is T34, 4H2687-AA.
T34 chain: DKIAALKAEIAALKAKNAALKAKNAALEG
Put plainly: two-hybrid library CCmax. As to conditions: mean of both orientations.

Assay [35] addresses T35, 4H3625-AA.
T35 chain: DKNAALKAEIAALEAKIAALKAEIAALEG
Put plainly: two-hybrid library CCmax. As to conditions: mean of both orientations.

The target in assay [36] is T36, 4H2646-AA.
T36 chain: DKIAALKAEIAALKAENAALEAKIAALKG
Description: two-hybrid library CCmax. As to conditions: mean of both orientations.

Assay [37] concerns the target T37, 4H2705-AA.
T37 chain: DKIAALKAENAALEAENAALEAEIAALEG
Put plainly: two-hybrid library CCmax. As to conditions: mean of both orientations.

The target in assay [38] is T38, 4H390-AA.
T38 chain: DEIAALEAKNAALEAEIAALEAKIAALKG
Put plainly: two-hybrid library CCmax. As to conditions: mean of both orientations.

Assay [39] concerns the target T39, 4H2985-AA.
T39 chain: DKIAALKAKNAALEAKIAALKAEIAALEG
Put plainly: two-hybrid library CCmax. To be noted: mean of both orientations.

As for DKIAQLEQENAELKQEIAELKWKIAQLEQ [4H2253-bA], the interaction score was -0.459 in assay [1]; -0.968 in assay [2]; -0.557 in assay [3]; -0.839 in assay [4]; -0.996 in assay [5]; 0.145 in assay [6]. For the same molecule, the interaction score was -0.529 in [7]; -0.707 in assay [8]; -0.743 in assay [9]; 0.026 in [10]; 0.247 in assay [11]; -1.05 in [12]. In addition, the interaction score was 0.778 in assay [13]; -0.504 in assay [14]; 0.641 in assay [15]; -1.65 in assay [16]; 0.651 in [17]; -0.0723 in assay [18]. Also, the values for the interaction score in assay [19] and in [20] were -0.566 and 1.28, respectively.

As for DKIAALEAENAALEAEIAALKAENAALEG [4H2187-AA], the interaction score was 2.24 in [21]; -0.772 in [22]; -1.46 in [23]; 0.853 in assay [24]; -1.71 in assay [25]; -0.477 in [26]. Also, the interaction score in assay [27] is -1.38; in assay [28], -0.683; in [29], 1.47; in assay [30], -2.2; in assay [31] it was -0.428; in assay [32] it was 0.406. The interaction score in assay [33] is 0.192; in [34] it was -0.754; in [35], -1.12; in assay [36] it was -1.38; in [37] it was -1.68; in assay [38], 0.639. In assay [39], this molecule yielded an interaction score of -0.684.
